One block for each substance: values may come before it.
What was measured:
Test in all cases: SEC
[1] = target: Δ14-ClpP (Escherichia coli)
[2] = target: Δ6-ClpP (Escherichia coli)
[3] = target: Δ10-ClpP (Escherichia coli)
[4] = target: Δ17-ClpP (Escherichia coli)
[5] = target: Δ4-ClpP (Escherichia coli)

- stoichiometry N [3]: 14
Substance: Δ10-ClpP (domain or fragment)

- stoichiometry N [5]: 14
Substance: Δ4-ClpP (domain or fragment)

The remaining lines, values behind:

Substance: Δ14-ClpP (domain or fragment)
- stoichiometry N [1]: 14

Substance: Δ6-ClpP (domain or fragment)
- stoichiometry N [2]: 14

Substance: Δ17-ClpP (domain or fragment)
- stoichiometry N [4]: 14
